How the values were obtained:
YBX1 = YBX1 (Homo sapiens, UniProt P67809 1-324); assay: EMSA; EMSA: 1 fmol labeled RNA, 0.1-4 pmol protein, 5% native acrylamide gel; buffer, salt, pH, temperature not given (refers to Marnef et al. 2016); settings: protein: recombinant, tags: Strep-tag (N-terminal, in 5' primer), Ni-NTA purified, tRNA fold
YBX3 = YBX3 (Homo sapiens, UniProt P16989 1-372); assay: as above; settings: protein: recombinant, tags: Strep-tag (N-terminal, in 5' primer), Ni-NTA purified, tRNA fold
YBX3, sequence (P16989 whole entry): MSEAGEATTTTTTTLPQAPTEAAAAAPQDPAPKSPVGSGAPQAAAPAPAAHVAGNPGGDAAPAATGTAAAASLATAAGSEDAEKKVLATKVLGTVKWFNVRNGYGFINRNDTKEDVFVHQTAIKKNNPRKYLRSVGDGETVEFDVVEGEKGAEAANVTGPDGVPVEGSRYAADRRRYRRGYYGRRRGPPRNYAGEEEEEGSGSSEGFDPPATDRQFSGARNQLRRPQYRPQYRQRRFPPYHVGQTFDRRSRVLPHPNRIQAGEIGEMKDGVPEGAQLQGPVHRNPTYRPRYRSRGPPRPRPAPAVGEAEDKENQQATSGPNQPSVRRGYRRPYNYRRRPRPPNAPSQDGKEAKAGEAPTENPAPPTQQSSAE

YBX1, sequence (P67809 whole entry): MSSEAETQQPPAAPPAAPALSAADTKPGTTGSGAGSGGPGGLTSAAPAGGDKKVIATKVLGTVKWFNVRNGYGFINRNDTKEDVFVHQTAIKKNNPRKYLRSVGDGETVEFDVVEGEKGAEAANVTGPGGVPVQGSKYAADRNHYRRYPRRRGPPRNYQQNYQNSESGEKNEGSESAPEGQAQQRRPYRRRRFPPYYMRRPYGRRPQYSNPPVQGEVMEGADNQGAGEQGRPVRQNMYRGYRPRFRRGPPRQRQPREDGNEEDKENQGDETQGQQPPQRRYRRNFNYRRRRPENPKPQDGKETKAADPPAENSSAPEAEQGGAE

B1: mt tRNALeu(UUR) (structured_RNA)
RNA: GUUAAGAUGGCAGAGCCCGGUAAUCGCAUAAAACUUAAAACUUUACAGUCAGAGGUUCAAUUCCUCUUCUUAACACCA
B1: binds (YBX1; label: internal 32P-CTP); binds (YBX3; label: internal 32P-CTP).

B2: mt tRNAGly (structured_RNA)
RNA: ACUCUUUUAGUAUAAAUAGUACCGUUAACUUCCAAUUAACUAGUUUUGACAACAUUCAAAAAAGAGUACCA
B2: binds (YBX1); binds (YBX3).

— publication PMC6239184, “Dynamic association of human mRNP proteins with mitochondrial tRNAs in the cytosol”
